Assay [1] has as its target T1, full-length mouse CD70 with C-terminal V5 tag (mouse, UniProt O55237 1-195).
T1 construct: On transfected CHO cells; also called murine CD70
T1 sequence: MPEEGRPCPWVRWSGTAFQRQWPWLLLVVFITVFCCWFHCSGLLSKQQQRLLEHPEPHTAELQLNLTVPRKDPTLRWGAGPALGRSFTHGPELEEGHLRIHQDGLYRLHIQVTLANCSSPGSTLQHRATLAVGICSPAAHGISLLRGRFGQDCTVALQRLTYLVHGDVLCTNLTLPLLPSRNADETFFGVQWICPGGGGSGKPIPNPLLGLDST
The experiment in a line: FACS on CHO cells, periplasmic scFv.
Experimental: (§1) All antibodies were diluted in PBS/1.5% FCS. As negative control, cells were incubated with PBS/2% FCS instead of the periplasmic extract. The samples were measured by flow cytometry.

In assay [2] the target is T2, human CD70 (human, UniProt P32970 1-193).
T2 construct: also called hu CD70; CD27L
T2 sequence: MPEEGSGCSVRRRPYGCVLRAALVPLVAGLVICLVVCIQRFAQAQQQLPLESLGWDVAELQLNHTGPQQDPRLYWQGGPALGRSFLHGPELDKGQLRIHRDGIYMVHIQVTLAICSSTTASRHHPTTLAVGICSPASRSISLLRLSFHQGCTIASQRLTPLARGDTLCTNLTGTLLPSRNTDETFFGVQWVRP
The experiment in a line: FACS on CHO cells, periplasmic scFv.
Experimental: as §1

B1: CD70-4 (scFv)
scFv: QVQLVQSGAEVKKPGASVKVSCKASGYTFTSYGISWVRQAPGQGLEWMGWISAYNGYTHYAQKLQGRVTMTTDTSTSTAYMELRSLRSDDTAVYYCARDYGGNDYYGMDVWGQGTTVTVSSGGGGSGGGGSGGGGSQSVLTQPPSASGTPGQRVTISCSGSSSNIGINYVYWYQQLPGTAPKLLIYRSDQRPSGVPDRFSGSKSGTSASLALSGLRSEDEADYYCAAWDDSLSGVVFGGGTKLTVL
notes: As m32
For B1, the binding result in assay [1] is recorded as “no binding”; in assay [2] it was “binds”.

B2: CD70-9 (scFv)
scFv: QVQLVQSGAEVKKPGASVKVSCKASGYTFTSYGISWVRQAPGQCLEWMGWISAYNGYTHYAQKLQGRVTMTTDTSTSTAYMELRSLRSDDTAVYYCARDYGGNDYYGMDVWGQGTTVTVSSGGGGSGGGGSGGGGSQSVLTQPPSASGTPGQRVTISCSGSSSNIGINYVYWYQQLPGTAPKLLIYRSDQRPSGVPDRFSGSKSGTSASLALSGLRSEDEADYYCAAWDDSLSGVVFGCGTKLTVL
notes: As m32
For the molecule B2, the binding result in assay [1] is recorded as “no binding”; in assay [2] it was “binds”.

B3: CD70-14 (scFv)
scFv: EVQLLESGGGLVQPGGSLKLSCAASGFTFSIYAMSWVRQAPGKGLEWVSAISGSGGSTFYADSVKGRFTISRDNSKNTLYLQMNSLRAEDTAVYYCAKHDYSNYPYFDYWGQGTLVTVSSGGGGSGGGGSGGGGSEIVLTQSPGTLSLSPGERATLSCRASQSVRSSYLAWYQQKPGQAPRLLIYGASSRATGIPDRFSGSGSGTDFTLTISRLEPEDFAVYYCQQYGDLPFTFGPGTKLEIK
notes: As m32
On to B3, for which the binding result in assay [1] was “no binding”; in assay [2], “binds”.

B4: CD70-18 (scFv)
scFv: EVQLLESGGGLVQPGGSLRLSCAASGFTFSSYAMSWVRQAPGKGLEWVSLISGSGGRTHYADSVKGRFTISRDNSKNTLYLQMNSLRAEDTAVYYCAKHDYSNYPYFDYWGQGTLVTVSSGGGGSGGGGSGGGGSEIVLTQSPGTLSLSPGERATLSCRASQSVRSTYLAWYQQKPGQAPRLLIYDASSRATGIPDRFSGSGSGTDFTLTISRLEPEDFAVYFCQQYGSSPPTFGGGTKLEIK
notes: As m32
Regarding B4, the binding result is reported as “no binding” in assay [1] and “binds” in assay [2].

B5: CD70-19 (scFv)
scFv: EVQLLESGGGLVQPGGSLRLSCAASGFTFSTYAMSWVRQAPGKGLEWVSAISGSGGSTFYADSVKGRFTISRDNSKNTLSLQMNSLRAEDTAVYYCAKHDYSNYPYFDYWGQGTLVTVSSGGGGSGGGGSGGGGSEIVLTQSPGTLSLSPGERATLSCRASQSVRSSYLAWYQQKPGQAPRLLIYGASSRATGIPDRFSGSGSGTDFTLTISRLEPEDFAVYYCQQYGDLPFTFGPGTKLEIK
notes: As m32
In the case of B5, the binding result in assay [1] is “no binding”; in assay [2], “binds”.

B6: CD70-16 (scFv)
scFv: EVQLLESGGGMVQPGGSLRLSCAASGFTFSSYAMSWVRQAPGKGLEWVSAISGSGGRTFYADSVEGRFTISRDNSKNTLYLQMNSLRAEDTAVYYCAKHDYSNYPYFDYWGQGTLVTVSSGGGGSGGGGSGGGGSEIVLTQSPGTLSLSPGERATLSCRASQSIRSSYLAWYQQKPGQAPRLLIYGASSRATGIPDRFSGSGSGTDFTLTISRLEPEDFAVYYCQQYGDLPFTFGPGTKLEIK
notes: As m32
Regarding B6, the binding result in assay [1] is listed as “no binding”; in assay [2], “binds”.

B7: CD70-3 (scFv)
scFv: QEQLVESGGGVVQPGRSLRLSCAASGFTFSSYGMHWVRQAPGKGLEWVAVTWYDGSNKYYGDSVKGRFTISRDNSKNTLYLQMNSLRAEDTAVYYCARDLLRGVKGYAMDVWGQGTTVTVSSGGGGSGGGGSGGGGSEIVLTQSPGTLSLSPGERATLSCRASQSLRRIYLAWYQQKPGQAPRLLIYDVFDRATGIPDRFSGGGSGTDFTLTISRLEPEDFAVYYCQQYSDSPFTFGPGTKVDIK
notes: As m32
With B7, the results for the binding result in assay [1] and in assay [2] were “no binding” and “binds”, respectively.

B8: CD70-2 (scFv)
scFv: QVQLVESGGGVVQPGRSLRLSCAASGFTFSSYGMHWVRQAPGKGLEWVAVIWYDGSDKYFADSVKGRFTISRDNSKNTLYLQMNSLRAEDTAVYYCARDGIAGARYVYFDYWGQGTLVTVSSGGGGSGGGGSGGGGSDIQMTQSPSSLSASVGDRVTITCRASQGISNYLAWFQQKPGKAPKSLIYAASSLQGGVPSKFSGSGSGTDFTLTISSLQPEDFATYYCQQYYNYPFTFGPGTTVDIK
In the case of B8, the values for the binding result in assay [1] and in assay [2] were “no binding” and “binds”, respectively.

B9: CD70-8 (scFv)
scFv: QVQLVESGGGVVQPGRSLRLSCAASGFTFSSYGMHWVRQAPGKCLEWVAVIWYDGSDKYFADSVKGRFTISRDNSKNTLYLQMNSLRAEDTAVYYCARDGIAGARYVYFDYWGQGTLVTVSSGGGGSGGGGSGGGGSDIQMTQSPSSLSASVGDRVTITCRASQGISNYLAWFQQKPGKAPKSLIYAASSLQGGVPSKFSGSGSGTDFTLTISSLQPEDFATYYCQQYYNYPFTFGCGTTVDIK
Turning to B9, the binding result is “no binding” in assay [1] and “binds” in assay [2].

B10: CD70-12 (scFv)
scFv: QAQLVESGGGVVQPGRSLRLSCAASGFTFSYYGMHWVRQAPGKCLEWVAVIWYDGSNKYYADSVKGRFTISRDNSKNTLYLQMNSLRAEDTAVYYCARDREMGSRGDFDYWGQGTLVTVSSGGGGSGGGGSGGGGSDIQMTQSPSSLSASVGDRVTITCRASQGINNYLAWFQQKPGKAPKSLIYAVSILQSGVPSKFSGSGSGTDFTLTIGNLQPEDFATYYCQQYNFYPFSFGCGTKVDIK
notes: As m32
On to B10, for which the binding result in assay [1] is on record as “no binding”; in assay [2], “binds”.

B11: CD70-10 (scFv)
scFv: QVQLQESGPGLVKPSQTLSLTCTVSGDSIISGGYYWSWIRQHPGKCLEWIGYIFYSGSTDYNPSLKSRVTISVDTSKNQFSLKLSSVTAADTAVYYCARSGYSYALFDHWGQGTLVTVSSGGGGSGGGGSGGGGSDIQMTQSPSSLSASVGDRVTISCRASQFIGRYFNWYQQQPGKAPKVLIYAESSLQSGVPSRFSGSGSGTEFTLTISSLQPEDFARYYCQQSYSTPWTFGCGTKVEIK
notes: As m32
For the molecule B11, the results for the binding result in assay [1] and in assay [2] were “no binding” and “binds”, respectively.

B12: CD70-5 (scFv)
scFv: QVQLQESGPGLVKPSQTLSLTCTVSGDSIISGGYYWSWIRQHPGKGLEWIGYIFYSGSTDYNPSLKSRVTISVDTSKNQFSLKLSSVTAADTAVYYCARSGYSYALFDHWGQGTLVTVSSGGGGSGGGGSGGGGSDIQMTQSPSSLSASVGDRVTISCRASQFIGRYFNWYQQQPGKAPKVLIYAESSLQSGVPSRFSGSGSGTEFTLTISSLQPEDFARYYCQQSYSTPWTFGQGTKVEIK
notes: As m32
B12: the binding result was “no binding” in assay [1] and “binds” in assay [2].

B13: CD70-6 (scFv)
scFv: QVQLQESGPGLVKPSQTLSLTCTVSGDSIISGGYYWSWIRQHPGKCLEWIGYIFYSGSTDYNPSLKSRVTISVDTSKNQFSLKLSSVTAADTAVYYCARSGYSYALFDHWGQGTLVTVSSGGGGSGGGGSGGGGSDIQMTQSPSSLSASVGDRVTISCRASQFIGRYFNWYQQQPGKAPKVLIYAESSLQSGVPSRFSGSGSGTEFTLTISSLQPEDFARYYCQQSYSTPFTFGCGTKVEIK
notes: As m32
B13: the figures for the binding result in assay [1] and in assay [2] were “no binding” and “binds”, respectively.

B14: CD70-13 (scFv)
scFv: EVQLLESGGGLVQPGGSLRLSCAASGFTFSSYAMSWVRQAPGKGLEWVSVISGSGGRPNYADSVKGRFTISRDNSKNTLYLQMNSLRDEDTAVYYCAKVDYSNYLFFDYWGQGTLVTVSSGGGGSGGGGSGGGGSEIVLTQSPGTLSLSPGEGATLSCRAGQSVRSSYLGWYQQKPGQAPRLLIYGASSRATGIPDRFSGSGSGTDFTLTISRLEPEDFAVYYCQQYGYSPPTFGGGTKLEIK
Take B14: the binding result in assay [1] was “no binding”; in assay [2], “binds”.

B15: CD70-11 (scFv)
scFv: QVQLVESGGGVVQPGRSLRLSCAASGFTFSTYGMHWVRQAPGKCLEWVAVIWYDGSNKYYGDSVKGRFTISRDNSKNTLYLQMNSLRAEDTAVYYCARDNSHYYYGMDVWGQGTTVTVSSGGGGSGGGGSGGGGSQSVLTQPPSVSGAPGQRVTISCTGSSSNIGAGYDVNWYQQFPGTAPKLLIYVNNNRPSGVPDRFSGSTSGTSASLAITGLQAEDEADYYCQSYETSLSASVFGCGTRLTVL
notes: As m32
On to B15, for which the binding result is on record as “no binding” in assay [1] and “binds” in assay [2].

B16: CD70-1 (scFv)
scFv: QVQLVESGGGVVQPGRSLRLSCAASGFTFSTYGMHWVRQAPGKGLEWVAVIWYDGSNKYYGDSVKGRFTISRDNSKNTLYLQMNSLRAEDTAVYYCARDNSHYYYGMDVWGQGTTVTVSSGGGGSGGGGSGGGGSQSVLTQPPSVSGAPGQRVTISCTGSSSNIGAGYDVNWYQQFPGTAPKLLIYVNNNRPSGVPDRFSGSTSGTSASLAITGLQAEDEADYYCQSYDTSLSASVFGGGTRLTVLS
Turning to B16, the binding result is “no binding” in assay [1] and “binds” in assay [2].

B17: CD70-7 (scFv)
scFv: QVHLVQSGAEVKKPGASVRVSCKASGYTFTSYYLHWVRQAPGQCLEWMGIVDPSGGSTSYDQKFQGRFTMTRDTSTSTVYMELSSLRSEDTAVYYCARDYGDYVFDYWGQGTLVTVSSGGGGSGGGGSGGGGSQSVLTQPPSASGTPGQRVTISCSGSSSNIGTNTVNWYQQLPGTAPQLLIYINNQRPSGVPDRFSGSKSGTSASLAISGLQSEDEADYYCATWDDSLNGPVVGCGTKLTVL
notes: As m32
Turning to B17, the figures for the binding result in assay [1] and in assay [2] were “no binding” and “binds”, respectively.
